Measured values from paper PMC9387928.

Molecular target: T1, ZccR (MerR-type regulator) (Streptococcus mutans UA159) (UniProt Q8DRZ5)
T1 sequence: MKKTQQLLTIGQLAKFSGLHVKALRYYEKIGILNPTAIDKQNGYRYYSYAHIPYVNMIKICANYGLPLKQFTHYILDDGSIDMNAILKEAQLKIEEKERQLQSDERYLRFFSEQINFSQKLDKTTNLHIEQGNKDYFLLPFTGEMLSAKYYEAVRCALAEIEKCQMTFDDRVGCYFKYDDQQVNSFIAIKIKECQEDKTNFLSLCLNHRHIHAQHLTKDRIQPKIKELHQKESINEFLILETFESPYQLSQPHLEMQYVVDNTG
Assay: EMSA
Conditions: 10 mM Tris, 50 mM KCl, 1 ug poly dI-dC, 1 mM DTT, 5% glycerol, pH 7.5; 20 fmol probe in 20 ul; 6% native PAGE at 4 C; binding temperature not stated

Sequence: CACAAATAGCTTGACCTTCCCTTTAAGGTATAGTTTATAGTTAAACTATAACAAGGTTTGCTAAAAAATGCAATGATTTCTGTATTGGAAAGGAGCCAATCATGTCTAAAGGTGATAAACAAAAGAAAAGGCTTCAAAAAATGACTTGGCTTTCAATATG (double strand) [zccE-zccR intergenic region (IGR), 160 bp]
- binding: binds
